Results on two molecules are retold here after patent US20130323248A1 (SORRENTO THERAPEUTICS, published 2013).

This assay addresses T1, human DLL-4 expressed on the surface of CHO-K1 cells (CHO-DLL-4 cells) (human, UniProt Q9NR61 27-685).
T1 construct: whole, on cells; also called cell surface expressed DLL-4; cellular human DLL-4
In words: flow cytometry (HTFC) on CHO-K1 cells stably expressing DLL-4. On the procedure: Cells stably expressing DLL-4 were incubated with 1 μg/ml of anti-DLL-4 antibodies as indicated. The binding was analyzed by flow cytometry (HTFC, Intellicyt).
This example illustrates in vitro data for cell binding as part of an initial screen for several disclosed antibodies. CHO-K1 cells stably expressing DLL-4 (CHO-DLL-4 cells) were lifted in enzyme-free Dissociation Buffer and transferred to V-Bottom 96 well-plates (100,000 cells/well). Cells were incubated with anti-DLL-4 Antibodies in FACS buffer (PBS+2% FBS)+NaN₃ on ice for 45 min. After 2 washes in FACS buffer, a 1:1000 dilution of Phycoerythrin conjugated anti-Human IgG (γ-chain specific) was added and incubated for 30 min. Following a final wash, fluorescence intensity was measured on an Intellicyt High Throughput Flow Cytometer (HTFC). Data were analyzed using Graphpad Prism software using non-linear regression fit. Data points are shown as the median fluorescence intensity (MFI) of positively labeled cells +/− Standard Error. EC₅₀ values are reported as the concentration of antibody to achieve 50% of maximal DLL-4 antibodies binding to DLL-4 expressing cells.

B1: anti-DLL-4 antibody C3 (antibody, V domains shown)
VH: QVQLVQSGSELKKPGASVKVSCKASGYTFTSYYMHWVRQVPGQGLEWMGIINPSGGSTSYAQKFQGRVTMTRDTSTSTVYMELSSLRSEDTAVYYCATDYYDSSGYVDFDYWGQGTLVTVSS
VL: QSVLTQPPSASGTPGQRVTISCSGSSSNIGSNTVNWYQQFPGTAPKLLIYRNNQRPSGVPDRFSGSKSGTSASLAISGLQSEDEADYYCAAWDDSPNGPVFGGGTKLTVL
notes: it was detected with anti-human IgG (gamma-chain specific)
Turning to B1, the binding result is “binds”.

B2: anti-DLL-4 antibody G6 (antibody, V domains shown)
VH: EVQLVESGGSLVQPGGSLRLSCAASGFTFSNGWMTWLRQAPGKGLEWVATIKPDGSDTAYVESVKGRFTISRDNAKNLLYLQMDSLRGDDTAVYFCARDLAYNAFDIWGQGTMVTVSS
VL: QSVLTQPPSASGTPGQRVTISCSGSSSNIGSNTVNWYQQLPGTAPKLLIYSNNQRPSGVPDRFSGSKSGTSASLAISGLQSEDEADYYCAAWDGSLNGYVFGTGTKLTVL
notes: Fully human antibody of an IgG class
Regarding B2, the binding result is “binds”.
